Data on 10 molecules can be found in US20090155873A1, “BIOFUEL PRODUCTION” (BIO ARCHITECTURE LAB, INC., priority 2007, published 2009).

Holding throughout (format): biochemical
Data set [1] in a line: Assay for D-mannuronate hydrogenase (NADPH dependent hydrogenation). The conditions noted are these: cell lysate, absorbance at 340 nm for 30 min, FIG. 7B. The protocol:
(§1) To identify D-mannuronate hydrogenase, a NADPH dependent D-mannuronate hydrogenation assay was performed. 20 μl of prepared cell lysate containing each ADH was added to 160 μl of D-mannuronate solution prepared in the above section. 20 μl of 2.5 mg/ml of NADPH solution (20 mM Tris-HCl, pH 8.0) was added to initiate the hydrogenation reaction. The consumption of NADPH was monitored an absorbance at 340 nm for 30 min using the kinetic mode of ThermoMAX 96 well plate reader (Molecular Devises). E. coli cell lysate containing alcohol dehydrogenase (ADH) 10 lacking a portion of N-terminal domain was used in a control reaction mixture.

A short description of data set [2]: In vitro pyruvate formation from alginate or mannuronate. The settings on record: purified enzyme ~5 ug, over night, pyruvate assay kit, FIG. 6B and 6C.
Data set [3] can be described thus: NADPH Production Assay (oxidation of 4-octanol). The conditions noted are these: NADP+, 30° C., FIG. 30B. The protocol: Various secondary alcohol dehydrogenases (2ADHs) were isolated from Pseudomonas putida KT2440, Pseudomonas fluorescens Pf-5, and Klebsiella pneumoniae MGH 78578. All vectors were transformed in BL21(DE3) competent cells and expression of the genes encoding the proteins of interest was induced with IPTG (via the T7 promoter). The cells were lysed, proteins were extracted and then purified on Ni-NTA columns. Final protein concentration in the Ni-NTA eluate was diluted to 0.15 mg/mL prior to assays.
[…] consumption and production assays were performed using a THERMOmax microplate reader in the kinetic mode, monitoring the NADPH absorbance peak at 340 nm until the reaction reached equilibrium. […] These reaction conditions are found in Table 4 below.

Data set [4] can be described thus: Assay for DEHU hydrogenase (NADPH dependent DEHU hydrogenation). The settings on record: cell lysate, absorbance at 340 nm for 30 min, FIG. 7A. The protocol: as §1, with “identify DEHU” for “identify D-mannuronate”, “dependent DEHU” for “dependent D-mannuronate”, “of 20-fold deluted DEHU” for “of D-mannuronate”, “hydrogenation reaction, as a preliminary study using cell lysate of A. tumefaciens C58 have shown that DEHU hydrogenation requires NADPH as a co-factor.” for “hydrogenation reaction.”

B1: ADH3: alcohol dehydrogenase ADH3 Atu0626 isolated from Agrobacterium tumefaciens C58, SEQ ID NO:74 (protein)
chain: MTKTMKAAVVRAFGKPLTIEEVAIPDPGPGEILINYKATGVCHTDLHAATGDWPVKPNPPFIPGHEGAGYVAKIGAGVTGIKEGDRAGTPWLYTACGCCIPCRTGWETLCPSQKNSGYSVNGSFAEYGLADPKFVGRLPDNLDFGPAAPVLCAGVTVYKGLKETEVRPGEWVVISGIGGLGHMAVQYAKAMGMHVVAADIFDDKLALAKKLGADVVVNGRAPDAVEQVQKATGGVHGALVTAVSPKAMEQAYGFLRSKGTMALVGLPPGFISIPVFDTVLKRITVRGSIVGTRQDLEEALTFAGEGKVAAHFSWDKLENINDIFHRMEEGKIDGRIVVDLAA
modifications: Agrobacterium tumefaciens C58
On to B1, for which the “mannuronate hydrogenase activity monitored by NADPH consumption” value in data set [1] is listed as “significant mannuronate hydrogenase activity”.

B2: Atu3027 (ADH11): alcohol dehydrogenase ADH11 Atu3027 isolated from Agrobacterium tumefaciens C58, SEQ ID NO:90 (protein)
chain: MRSELPEGFFGPREWARLNAVADIIPGFPHTDFDTANGAEALAEADILLAAWGTPSLTRERLSRAPRLKMLAYAASSVRMVAPAEFWETSDILVTTAASAMAVPVAEFTYAAIIMCGKDVFRLRDEHRTERGTGVFGSRRGRSLPYLGNHARKVGIVGASRIGRLVMEMLARGTFEIAVYDPFLSAEEAASLGAKKAELDELLAWSDVVSLHAPILPETHHMIGARELALMADHAIFINTARGWLVDHDALLTEAISGRLRILIDTPEPEPLPTDSPFYDLPNVVLTPHIAGALGNELRALSDLAITEIERFVAGLAPLHPVHKQDMERMA
modifications: Agrobacterium tumefaciens C58
With B2, in data set [2], the “catalysis of DEHU hydrogenase and mannuronate hydrogenase reactions in pyruvate formation from alginate” value was “capable of catalyzing both DEHU hydrogenase and mannuronate hydrogenase reactions”.

B3: 2ADH-5: secondary alcohol dehydrogenase isolated from Pseudomonas putida KT2440, SEQ ID NO:118 (protein)
chain: MSKQLTLEGKVALVQGGSRGIGAAIVRRLAREGAQVAFTYVSSAGPAEELAREITENGGKALALRADSADAAAVQLAVDDTEKALGRLDILVNNAGVLAVAPVTEFDLADFDHMLAVNVRSVFVASQAAARYMGQGGRIINIGSTNAERMPFAGGAPYAMSKSALVGLTRGMARDLGPQGITVNNVQPGPVDTDMNPASGEFAESLIPLMAIGRYGEPEEIASFVAYLAGPEAGYITGASLTVDGGFAA
modifications: Pseudomonas putida KT2440
In the case of B3, the “oxidation of 4-octanol measured by NADPH production” value (“oxidation of 4-octanol measured” for short) in data set [3] is “catalyze the oxidation of 4-octanol in the presence of NADP+”.

B4: ADH1: alcohol dehydrogenase ADH1 Atu1557 isolated from Agrobacterium tumefaciens C58, SEQ ID NO:70 (protein)
chain: MFTTSAYACDDGSSPMKLATIRRRDPGPRDVEIEIEFCGVCHSDIHTARSEWPGSLYPCVPGHEIVGRVGRVGAQVTRFKTGDRVGVGCIVDSCRECASCAEGLEQYCENGMTGTYNSPDKAMGGGAHTLGGYSAHVVVDDRYVLNIPEGLDPAAAAPLLCAGITTYSPLRHWNAGPGKRVGVVGLGGLGHMAVKLANAMGATVVMITTSPGKAEDAKKLGAHEVIISRDAEQMKKATSSLDLIIDAVAADHDIDAYLALLKRDGALVQVGAPEKPLSVMAFSLIPGRKTFAGSMIGGIPETQEMLDFCAEKGIAGEIEMIDIDQINDAYERMIKSDVRYRFVIDMKSLPRQKAA
modifications: Agrobacterium tumefaciens C58
Consider B4, for which the “DEHU hydrogenase activity monitored by NADPH consumption” value in data set [4] is “significant DEHU hydrogenase activity”.

B5: 2ADH-8: secondary alcohol dehydrogenase isolated from Pseudomonas putida KT2440, SEQ ID NO:124 (protein)
chain: MSLQGKVALVTGASRGIGQAIALELGRQGATVIGTATSASGAERIAATLKEHGITGTGMELNVTSAESVEAVLAAIGEQFGAPAILVNNAGITRDNLMLRMKDDEWFDVIDTNLNSLYRLSKGVLRGMTKARWGRIISIGSVVGAMGNAGQANYAAAKAGLEGFSRALAREVGSRGITVNSVTPGFIDTDMTRELPEAQREALQTQIPLGRLGQADEIAKVVSFLASDGAAYVTGATVPVNGGMYM
modifications: Pseudomonas putida KT2440
On to B5, for which, in data set [3], the “oxidation of 4-octanol measured” value is reported as “catalyze the oxidation of 4-octanol in the presence of NADP+”.

B6: ADH4: alcohol dehydrogenase ADH4 Atu5240 isolated from Agrobacterium tumefaciens C58, SEQ ID NO:76 (protein)
chain: MTGANQPWEVQEVPVPKAEPGLVLVKIHASGMCYTDVWATQGAGGDIYPQTPGHEVVGEIIEVGAGVHTRKVGDRVGTTWVQSSCGRCSYCRQNRPLTGQTAMNCDSPRTTGFATQGGHAEYIAISAEGTVLLPDGLDYTDAAPMMCAGYTTWSGLRDAEPKPGDRIAVLGIGGLGHVAVQFSKALGFETIAITHSPDKHKLATDLGADIVVADGKELLEAGGADVLLVTTNDFDTAEKAMAGVRPDGRIVLCALDFSKPFSIPSDGKPFHMMRQRVVGSTHGGQHYLAEILDLAAKGKVKPIVETFALEQATEAYERLSTGKMRFRGVFLPHGA
modifications: Agrobacterium tumefaciens C58
With B6, in data set [1], the “mannuronate hydrogenase activity monitored by NADPH consumption” value is “significant mannuronate hydrogenase activity”.

B7: 2ADH-10: secondary alcohol dehydrogenase isolated from Pseudomonas putida KT2440, SEQ ID NO:128 (protein)
chain: MSKTHLFDLDGKIAFVSGASRGIGEAIAHLLAQQGAHVIVSSRKLDGCQQVADAIIAAGGKATAVACHIGELEQIQQVFAGIREQFGRLDVLVNNAATNPQFCNVLDTDPGAFQKTVDVNIRGYFFMSVEAGKLMRENGGGSIINVASINGVSPGLFQGIYSVTKAAVINMTKVFAKECAPFGIRCNALLPGLTDTKFASALVKNEAILNAALQQIPLKRVADPKEMAGAVLYLASDASSYTTGTTLNVDGGFLS
modifications: Pseudomonas putida KT2440
On to B7, for which the “oxidation of 4-octanol measured” value in data set [3] is “catalyze the oxidation of 4-octanol in the presence of NADP+”.

B8: ADH2: alcohol dehydrogenase ADH2 Atu2022 isolated from Agrobacterium tumefaciens C58, SEQ ID NO:72 (protein)
chain: MAIARGYAATDASKPLTPFTFERREPNDDDVVIDIKYAGICHSDIHTVRNEWHNAVYPIVPGHEIAGVVRAVGSKVTRFKVGDHVGVGCFVDSCVGCATRDVDNEQYMPGLVQTYNSVERDGKSATQGGYSDHIVVREDYVLSIPDNLPLDASAPLLCAGITLYSPLQHWNAGPGKKVAIVGMGGLGHMGVKIGSAMGADITVLSQTLSKKEDGLKLGAKEYYATSDASTFEKLAGTFDLILCTVSAEIDWNAYLNLLKVNGTMVLLGVPEHAIPVHAFSVIPARRSLAGSMIGSIKETQEMLDFCGKHDIVSEIETIGIKDVNEAYERVLKSDVRYRFVIDMASLDA
modifications: Agrobacterium tumefaciens C58
Regarding B8, the “DEHU hydrogenase activity monitored by NADPH consumption” value in data set [4] is listed as “significant DEHU hydrogenase activity”.

B9: ADH9: alcohol dehydrogenase ADH9 Atu4087 isolated from Agrobacterium tumefaciens C58, SEQ ID NO:86 (protein)
chain: MKAIVAHGAKDVRIEDRPEEKPGPGEVRLRLARGGICGSDLHYYNHGGFGAVRLREPMVLGHEVSAVIEELGEGVEGLKIGGLVAVSPSRPCRTCRFCQEGLHNQCLNMRFYGSAMPFPHIQGAFREILVADALQCVPADGLSAGEAAMAEPLAVTLHATRRAGDLLGKRVLVTGCGPIGILSILAARRAGAAEIVATDLSDFTLGKAREAGADRVINSKDEPDALAAYGANKGTFDILYECSGAAVALAGGITALRPRGIIVQLGLGGDMSLPMMAITAKELDLRGSFRFHEEFATGVELMRKGLIDVKPFITQTVDLADAISAFEFASDRSRAMKVQIAFS
modifications: Agrobacterium tumefaciens C58
Consider B9, for which, in data set [1], the “mannuronate hydrogenase activity monitored by NADPH consumption” value is “significant mannuronate hydrogenase activity”.

B10: Atu3026 (ADH12): alcohol dehydrogenase ADH12 Atu3026 isolated from Agrobacterium tumefaciens C58, SEQ ID NO:92 (protein)
chain: MQRFTNRTIVVAGAGRDIGRACAIRFAQEGANVVLTYNGAAEGAATAVAEIEKLGRSALAIKADLTNAAEVEAAISAAADKFGEIHGLVHVAGGLIARKTIAEMDEAFWHQVLDVNLTSLFLTAKTALPKMAKGGAIVTFSSQAGRDGGGPGALAYATSKGAVMTFTRGLAKEVGPKIRVNAVCPGMISTTFHDTFTKPEVRERVAGATSLKREGSSEDVAGLVAFLASDDAAYVTGACYDINGGVLFS
modifications: Agrobacterium tumefaciens C58
Consider B10, for which the “catalysis of DEHU hydrogenase and mannuronate hydrogenase reactions in pyruvate formation from alginate” value in data set [2] is “capable of catalyzing both DEHU hydrogenase and mannuronate hydrogenase reactions”.
